Data published in patent publication US20220265772A1, “USES OF DAN FAMILY BMP ANTAGONISTS FOR INHIBITING OCULAR NEOVASCULARIZATION AND TREATING OCULAR CONDITIONS” (9636137 Canada Inc., priority 2019, published 2022).

Columns and labels:
Wnt signaling = conditions: previous study (5); cited from earlier work
VEGF signaling = VEGF signaling and VEGF receptor levels in HUVECs (immunoblotting); type: cell-based, human
Description: FIG. 6A: HUVECs were grown in complete media were in the absence or presence of Dand5 or IWR1 for up to 24 hours. Protein extracts were analyzed by immunoblotting (representative image of n=3 experiments). FIG. 6C: HUVECs were grown in low serum media for 16 h in the absence or presence of 60 ng/mL of Dand5. VEGF signaling was induced by addition of 25 ng/mL of rhVEGF for up to 60 minutes. Protein extracts were analyzed by immunoblotting (representative image of n=3). FIG. 6D: Quantification of the mean gray value of phosphorylated proteins normalized to the mean gray value of β-Actin of immunoblots in FIG. 6C (n=3, ns). FIG. 6E: HUVECs were plated in the presence or absence of 60 ng/mL of Dand5. Proteins extracts were analyzed for expression of VEGF receptors (representative image of n=3).
Cells were washed with cold PBS and extracted in Laemmli's buffer, followed by sonication. Samples were run on SDS-PAGE gels and transferred onto nitrocellulose membranes. Membranes were blocked with 5% Bovine Serum Albumin (BSA) and probed with primary antibodies overnight at 4° C.: beta-Catenin (Cell Signaling Technology), phospho-beta-catenin (Cell Signaling Technology), Axin2 (Cell Signaling Technology), beta-Actin (Santa Cruz Technologies). HRP-conjugated secondary antibodies (Vector Laboratories) were used to detect primary antibodies.
HUVECs were starved overnight in the presence or absence of DAND5, followed by VEGF stimulation for up to 60 minutes. […] Likewise, VEGFR2 and VEGFR1 levels were unaffected upon HUVECs exposure to DAND5 for 0.5-24 h (FIG. 6 E, F).

Wnt-induced angiogenesis = experiment: Wnt1 and DAND5 co-injection during retinal vascular development (P1 to P5); type: in vivo, mouse; conditions: quantification of vascular branches in treated eyes
Description: FIG. 13 is a panel with pictures and graphs showing that Dand5 opposes Wnt1-mediated hypervascularization during retinal vascular development. FIG. 13A: Schematic representation of experimental design. C57B6 pups were injected at P1 with PBS, Dand5 (60 ng/mL), Wnt1, or Wnt1 and Dand5 together at various molar ratios (1N, 5N and 10N). FIG. 13B: Representative images of retinas treated with PBS, Dand5 (1N) or Wnt1 (1N). FIG. 13C: Representative images of retinas treated with PBS or with Wnt1 (5N and 10N) alone or in combination with Danb5. Dand5 Flatmounts retinas were stained with Isolectin B4 to visualize the vasculature. FIG. 13D: Quantification of vascular branches in treated eyes. […] To address the antagonism of DAND5 on Wnt-induced angiogenesis, retinas were injected with recombinant DAND5 (60 ng) with increasing concentrations of Wnt1 (0, 1, 5 or 10× molar ratio) at P1 and retinas were harvested at P5 (FIG. 13A).

[1] = system: choroidal neovascularization; experiment: Laser-induced choroidal neovascularization (CNV); type: in vivo, mouse
Description: Three-month-old C57BL/6J mice were anesthetised with a ketamine/xylazine mix prior to applying a photocoagulating laser (400 mW intensity, 0.05 s exposure time). Four spots were burned around the optical nerve. Mice received 100 ng of recombinant human DAND5 intravitreally or similar volume of vehicle in the contralateral eye. Eyes were enucleated after 14 days and processed for immunostaining.
Ocular globes were initially fixed for 15 min in 4% paraformaldehyde (PFA). Retinas or choroids were collected after eyes dissection in PBS and blocked 1 h in PBS 3% BSA 0.1% Triton X-100™. Fixation was prolonged in 1% PFA overnight for choroid extraction or eyes sectioning. […] Quantitative analysis of tufts, vaso-obliterated or vessel areas were performed using imageJ/Swift_NV™ as previously described (1). Neovascular tuft formation was quantified by comparing the number of pixels in the affected areas with the total number of pixels in the retina. The avascular area in the retina was measured in the same way using an anti-DAND5/COCO polyclonal goat IgG antibody (AF3047, R&D systems).
The effects of DAND5 on choroidal neovascularization (CNV) were also evaluated by subjecting mice to laser-induced CNV, a model which recapitulates the CNV occurring in wet AMD patients. […]

LDHA = experiment: AMPLI-seq transcriptome analysis of HUVECs; type: cell-based, human; conditions: HUVECs treated for 6 and 16 h
Description: FIG. 7 is a panel with a schematic and graphs showing that DAND5 modifies the metabolic transcriptional program in cultured endothelial cells. HUVECs were treated for 6 and 16 h with either PBS or DAND5, before RNA extraction. RNA was reverse-transcribed and cDNA amplified using IonTorrent Ampliseq™ Transcriptome Human Gene Expression kit. FIG. 7A: Heat map of metabolism-related genes.
We performed AMPLI-seq analysis of HUVECs exposed or not to recombinant DAND5. […] Lactate de-hydrogenase A (LDHA) regulates lactate metabolism during anaerobic respiration.

B1: DAND5: human recombinant DAND5/COCO biologically active fragment produced in E. coli, predicted 18.2 kDa monomer, R&D systems 3047-CC-050 (protein)
chain: MRPEPQSPRPQSWAAANQTWALGPGALPPLVPASALGSWKAFLGLQKARQLGMGRLQRGQDEVAAVTLPLNPQEVIQGMCKAVPFVQVFSRPGCSAIRLRNHLCFGHCSSLYIPGSDPTPLVLCNSCMPARKRWAPVVLWCLTGSSASRRRVKISTMLIEGCHCSPKA
Q: Which “Wnt signaling in photoreceptors” value (Wnt signaling) does the source give for B1 here?
A: The value was “potent inhibitor of Wnt signaling in photoreceptors”.

Q: And the “VEGFR2 phosphorylation at Y1175” value (VEGF signaling; HUVECs cultured in the presence of DAND5)?
A: Its value is “unaffected”.

Q: And the “VEGFR2 and VEGFR1 levels” value (VEGF signaling; HUVECs exposed for 0.5-24 h)?
A: Its value is “unaffected”.

Q: And the “VEGF-induced phosphorylation of VEGF downstream effectors” value (VEGF signaling; HUVECs starved overnight with DAND5, VEGF stimulation up to 60 minutes)?
A: Its value is “no significant decrease in VEGF-induced phosphorylation of VEGF downstream effectors”.

Q: What about the “mutual antagonism on vascular branches” value (Wnt-induced angiogenesis) of the same molecule?
A: The value was “mutually antagonist activities”.

Q: What about the “inhibitory effect on retinal and choroidal neovascularization compared with Flt1Fc” value ([1]; OIR and laser-induced CNV together) of the same molecule?
A: The value was “significantly better than VEGF inhibition with Flt1Fc”.

Q: What about the “area of CNV” value ([1]; laser impact, intravitreal delivery, 14 days, compared with controls) of the same molecule?
A: The value was “significant decrease in the area of CNV”.

Q: What about the LDHA expression (LDHA) of the same molecule?
A: Its LDHA expression is “down-regulation of LDHA”.
